# Experimental data published in patent publication US20250090676A1 (SUTRO BIOPHARMA, published 2025).
# Key:
# [1] = target: T1, murine folate receptor alpha (mouse, UniProt P35846 25-232); assay: FACS, CHO-mFOLR1 cells;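 also: flow cytometry binding of serially diluted test antibodies to transfected CHO cells on ice, mean fluorescence intensity, parental CHO cells give background, Kd from one-site specific binding fit with Hill slope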
# T1 construct: Expressed on the surface of stably transfected CHO cells; also called mouse FolR1; CHO-mouse FolR1
# Experimental: (§1) CHO cells were transfected to stably express human (CHO-hFOLR1), cynomolgus (CHO-cFOLR1), or mouse (CHO-mFOLR1) target molecule FOLR1 on the cell surface. Parental CHO cells were used as a negative control to determine background binding levels. Parental CHO and stably transfected CHO-hFOLR1, CHO-cFOLR1, and CHO-mFOLR1 cells were cultured in Ham's F-12: high glucose DMEM (50:50) (Corning, Cellgro-Mediatech) supplemented with 10% heat-inactivated fetal bovine serum (Corning, Cellgro-Mediatech), 1% Penicillin/Streptomycin (Corning, Cellgro-Mediatech) and 2 mmol/L-glutamax (Life Technology).
# (§2) A mixture of fluoresecent-labeled parental CHO cells and unlabeled CHO-hFOLRlcells were prepared as follows. Parental CHO cells were washed twice in PBS and incubated in PBS containing with 1 nM CellTrace™ Oregon Green488® (Life Technologies) at 37° C. for 30 minutes. Labeled parental CHO cells were then washed 2× with Ham's F-12 media and 2× with FACS buffer (PBS with 1% bovine serum albumin). Unlabeled CHO-hFOLR1 cells were similarly washed and prepared. Labeled parental CHO and unlabeled CHO-hFOLR1 cells were combined at 1:1 ratio and seeded at 50 μL per well (200,000 cells per well) in 96 well polypropylene plates. Cells were mixed with 50 μL of test antibodies (i.e., anti-FOLR1 variants) serially diluted in FACS buffer and incubated on ice for 60 mins. […] Data were analyzed using FlowJo® software (FlowJo, LLC; Ashland, OR) to determine mean fluorescence intensities. Binding constants were calculated using the statistical software, GraphPad Prism (GraphPad Software; La Jolla, CA) using the nonlinear regression equation, one site-specific binding with Hill slope. Secondary antibody alone was used as a control, in addition to measuring non-specific antibody binding to CHO parental cells.
# [2] = target: T2, human folate receptor alpha (hFOLR1) (human, UniProt P15328 25-234); assay: FACS, CHO-hFOLR1 cells;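 also: flow cytometry of serially diluted antibodies binding CHO cells stably expressing the receptor, 60 min on ice, mixed with dye-tagged parental CHO as background control, one-site specific fit with Hill slope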
# T2 construct: endogenous on FOLR1-positive KB and Igrov1 cells (cell killing); also called human FolR1; FolRα
# Experimental: as §1, §2
# [3] = target: T3, cynomolgus monkey folate receptor alpha (cynomolgus monkey, UniProt P15328 25-234 (human entry)); assay: FACS, CHO-cFOLR1 cells
# T3 construct: Expressed on the surface of stably transfected CHO cells; also called cyno FolR1; CHO-cyno FolR1
# Experimental: as §1, §2
# [4] = target: T2, human folate receptor alpha (hFOLR1); assay: cell-based or functional assay
# T3 sequence (P15328 other isoform, or with tags, fused parts or gaps limits assumed): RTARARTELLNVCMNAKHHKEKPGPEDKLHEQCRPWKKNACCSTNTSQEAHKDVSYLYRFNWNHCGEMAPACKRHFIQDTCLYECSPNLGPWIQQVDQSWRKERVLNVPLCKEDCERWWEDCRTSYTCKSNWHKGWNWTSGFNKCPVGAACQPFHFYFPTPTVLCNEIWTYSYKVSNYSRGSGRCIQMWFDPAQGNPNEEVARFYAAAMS
# T2 sequence (P15328 25-234 limits assumed): as the sequence (P15328 other isoform, or with tags, fused parts or gaps limits assumed) above, with T2I, R4W, K37R, R117Q, P146A, Y171H counted along it
# T1 sequence (P35846 25-232 limits assumed): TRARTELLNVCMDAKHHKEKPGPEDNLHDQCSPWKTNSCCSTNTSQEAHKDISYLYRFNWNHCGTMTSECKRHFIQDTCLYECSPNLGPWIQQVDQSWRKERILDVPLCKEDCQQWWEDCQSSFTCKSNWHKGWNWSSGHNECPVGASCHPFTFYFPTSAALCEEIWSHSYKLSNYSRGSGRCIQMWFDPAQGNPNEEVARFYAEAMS
Binder,binding result [1],Bmax (MFI) [2] [MFI],Kd [2] [nM],Bmax (MFI) [3] [MFI],Kd [3] [nM],"Igrov, 2° Antibody Cell Killing, Nb-SC239: EC50 [4] [nM]","Igrov, 2° Antibody Cell Killing, Nb-SC239: Span [4] [%]","KB, 2° Antibody Cell Killing, Nb-239: EC50 [4] [nM]","KB, 2° Antibody Cell Killing, Nb-239: Span [4] [%]",Bmax (MFI) [1] [MFI],Kd [1] [nM]
"SRP1848-D04 (antibody, V domains shown, HC variant paired with trastuzumab LC, cell-free expressed, HIS- and FLAG-tagged; also called Antibody 26) VH: EVQLVESGGGLVQPGGSLRLSCAASGFNISHYSIHWVRQAPGKGLEWVGEIYPRDGITDYADSVKGRFTISADTSKNTAYLQMNSLSAEDTAVYYCARGYWFWRSGYGYYLDYWGQGTLVTVSS VL: not shown",no binding,29300,2.21,25700,2.84,0.068,77,0.38,97,,
"SRP1848-D05 (antibody, V domains shown, HC variant paired with trastuzumab LC, cell-free expressed, HIS- and FLAG-tagged; also called Antibody 27) VH: EVQLVESGGGLVQPGGSLRLSCAASGFNISISYIHWVRQAPGKGLEWVGGISPIDGYTDYADSVKGRFTISADTSKNTAYLQMNSLRAEDTAVYYCARGSWSWRAGYGYYLDYWGQGTLVTVSS VL: not shown",,26700,0.57,22200,0.45,,73,0.055,92,1360,14
"SRP1848-D07 (antibody, V domains shown, HC variant paired with trastuzumab LC, cell-free expressed, HIS- and FLAG-tagged; also called Antibody 28) VH: EVQLVESGGGLVQPGGSLRLSCAASGFNISKYYIHWVRQAPGKGLEWVGGISPNDGYTDYADSVKGRFAISADTSKNTAYLQMNSLRAEDTAVYYCARGFWAWRSGYGYYLDYWGQGTLVTVSS VL: not shown",no binding,25700,0.77,24300,0.92,0.032,71,0.075,94,,
"SRP1848-D09 (antibody, V domains shown, HC variant paired with trastuzumab LC, cell-free expressed, HIS- and FLAG-tagged; also called Antibody 29) VH: EVQLVESGGGLVQPGGSLRLSCAASGFNISNYYIHWVRQAPGKGLEWVGGISPNDGYTDYADSVKGRFTISADTSKNTAYLQMNSLRAEDTAVYYCARGSWSWRHGYGYYLDYWGQGTLVTVSS VL: not shown",no binding,25000,0.46,21300,0.65,0.023,70,0.042,91,,
"SRP1848-D10 (antibody, V domains shown, HC variant paired with trastuzumab LC, cell-free expressed, HIS- and FLAG-tagged; also called Antibody 30) VH: EVQLVESGGGLVQPGGSLRLSCAASGFNISRNSIHWVRQAPGKGLEWVGWISPNDGTTDYADSVKGRFTISADGSKNTAYLQMNSLRAEDTAVYYCARGAWSWRSGYGYYIDYWGQGTLVTVSS VL: not shown",,26500,0.48,20600,0.52,0.012,54,0.016,90,1860,13
"SRP1848-E01 (antibody, V domains shown, HC variant paired with trastuzumab LC, cell-free expressed, HIS- and FLAG-tagged; also called Antibody 31) VH: EVQLVESGGGLVQPGGSLRLSCAASGFNITNKYIHWVRQAPGKGLEWVGGITPFDGFTDYADSVKGRFTISADTSKNTAYLQMNSLRAEDTAVYYCARGSWSWPAGYGYYQDYWGQGTLVTVSS VL: not shown",no binding,26400,1.01,22400,0.96,0.029,72,0.088,92,,
"SRP1848-E02 (antibody, V domains shown, HC variant paired with trastuzumab LC, cell-free expressed, HIS- and FLAG-tagged; also called SKP1848-E02; Antibody 32) VH: EVQLVESGGGLVQPGGSLRLSCAASGFNIGKYSIHWVRQAPGKGLEWVGEIYPNDGNTDYADSVKGRFTISADTSKNTAYLQMNSLRAEDTAVYYCARGSWSWRSGYGYYLDYWGQGTLVTVSS VL: not shown",,23800,0.53,18700,0.59,0.025,71,0.046,93,1470,21
"SRP1848-E05 (antibody, V domains shown, HC variant paired with trastuzumab LC, cell-free expressed, HIS- and FLAG-tagged; also called Antibody 34) VH: EVQLVESGGGLVQPGGSLRVSCAASGFNIGVYYIHWVRQAPGKGLEWVGGITPNDGYTDYADSVKGRFTISADTSKNTAYLQMNSLRAEDTAVYYCARGFWAWRSGYGYYLDYWGQGTLVTVSS VL: not shown",no binding,27300,0.46,28200,0.55,0.027,78,0.071,95,,
"SRP1848-E07 (antibody, V domains shown, HC variant paired with trastuzumab LC, cell-free expressed, HIS- and FLAG-tagged; also called Antibody 36) VH: EVQLVESGGGLVQPGGSLRLSCAASGFNIRKSSIHWVRQAPGKGLEWVGEIFPYDGSTDYADNVKGRFTISADTSKNTAYLQMNSLRAEDTAVYYCARGAWSWRSGYGYYIDYWGQGTLVTVSS VL: not shown",,27300,0.54,20400,0.23,0.013,73,0.059,94,11800,1.2
"SRP1848-F01 (antibody, V domains shown, HC variant paired with trastuzumab LC, cell-free expressed, HIS- and FLAG-tagged; also called Antibody 37) VH: EVQLVESGGGLVQPGGSLRLSCAASGFNIRTYSIHWVRQAPGKGLEWVGSIFPNDGTTDYADSVKGRFTISADTSKNTAYLQMNSLRAEDTAVYYCARGSWAWRAGYSYYLDYWGQGTLVTVSS VL: not shown",,25200,0.56,21500,0.43,0.018,69,0.047,91,3750,1.8
"SRP1848-F02 (antibody, V domains shown, HC variant paired with trastuzumab LC, cell-free expressed, HIS- and FLAG-tagged; also called Antibody 38) VH: EVQLVESGGGLVQPGGSLRLSCAASGFNIRTYSIHWVRQAPGKGLEWVGSIFPNDGTTDYADSVKGRLTISADTSKNTAYLQMNSLRAEDTAVYYCARGSWSWQAGYGYYLDYWGQGTLVTVSS VL: not shown",,25700,0.62,14900,0.19,0.009,54,0.054,92,2740,2.6
"SRP1848-F05 (antibody, V domains shown, HC variant paired with trastuzumab LC, cell-free expressed, HIS- and FLAG-tagged; also called Antibody 40) VH: EVQLVESGGGLVQPGGSLRLSCAASGFNISKSSIHWVRQAPGKGLEWVGEIYPNDGSTDYADSVKGRFTISADTSKNTAYLQMNSLRAEDTAVYYCARGSWAWRSGYSYFLDYWGQGTLVTVSS VL: not shown",,27200,0.72,24700,0.61,0.015,74,0.061,94,5100,18
"SRP1848-F06 (antibody, V domains shown, HC variant paired with trastuzumab LC, cell-free expressed, HIS- and FLAG-tagged; also called Antibody 41) VH: EVQLVESGGGLVQPGGSLRLSCAASGFNISLSYIHWVRQAPGKGLEWVGGISPIDGNTDYADSVKGRFTISADTSKNTAYLQMNSLRAEDTAVYYCARGFWAWRSGYGYYLDYWGQGTLVTVSS VL: not shown",no binding,25600,0.87,26500,0.86,0.032,77,0.066,94,,
"SRP1848-F07 (antibody, V domains shown, HC variant paired with trastuzumab LC, cell-free expressed, HIS- and FLAG-tagged; also called Antibody 42) VH: EVQLVESGGGLVQPGGSLRLSCAASGFNISNHSIHWVRQAPGKGLEWVGEIYPNDGITDYADSVKGRFTISADTSKNTAYLQMNSLSAEDTAVYYCARGSWDWRSGYSYYLDYWGQGTLVTVSS VL: not shown",,27400,0.58,18700,0.56,0.018,71,0.057,92,1390,8.8
"SRP1848-F08 (antibody, V domains shown, HC variant paired with trastuzumab LC, cell-free expressed, HIS- and FLAG-tagged; also called Antibody 43) VH: EVQLVESGGGLVQPGGSLRLSCAAGGFNISNHSIHWVRQAPGKGVEWVGEIYPVDGITDYADSVKGRFTISADTSKNTAYLRMNSLRAEDTAVYYCARGSWYWQSGYSYYLDYWGQGTLVTVSS VL: not shown",no binding,26500,0.91,21000,1.07,0.024,77,0.061,94,,
"SRP1848-F09 (antibody, V domains shown, HC variant paired with trastuzumab LC, cell-free expressed, HIS- and FLAG-tagged; also called Antibody 44) VH: EVQLVESGGGLVQPGGSLRLSCAASGFNISNHYIHWVRQAPGKGLEWVGGISPLDGYTDYADSVKGRFTISADTSKNTAYLQMNSLRAEDTAVYYCARGAWSWRSGYGYYIDYWGQGTLVTVSS VL: not shown",,23800,0.36,24200,0.75,0.05,79,0.056,93,1670,90.7
